From the supplement of paper PMC12855868

B1: library; numbered along this chain (parent)
chain: MAAAGGARLLRAASAVLGGPAGRWLHHAGSRAGSSGLLRNRGPGGSAEASRSLSVSARARSSSEDKITVHFINRDGETLTTKGKVGDSLLDVVVENNLDIDGFGACEGTLACSTCHLIFEDHIYEKLDAITDEENDMLDLAYGLTDRSRLGCQICLTKSMDNMTVRVPETVADARQSIDVGKTS

Variants of: B1
Assay: scaled log2 fold change in cell abundance, elesclomol vs control (0 = silent mean, 1 = nonsense mean) (scaled log2 ratio); higher = higher viability under elesclomol (loss of FDX1 cuproptosis function)
Details: glucose 10 mM
Protocol: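 Deep mutational scan of full-length human FDX1: a pooled saturation-mutagenesis ORF library (every residue 2-184 mutated to all 19 amino acids plus stop, and silent codons where available) was expressed by lentivirus in FDX1-knockout ABC1 (14 days) or HEK293T (11 days) cells grown with elesclomol (ES) or DMSO control. Variant abundance came from ORF sequencing. The log2 fold change (ES vs control, mean of duplicates) was centred on the silent-variant mean (0) and scaled to the nonsense-variant mean (1). Higher values mean greater viability under ES, i.e. loss of FDX1 function in cuproptosis.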

[1] = with ABC1 FDX1 KO, elesclomol 5 nM, 14 days
[2] = with HEK293T FDX1 KO, elesclomol 40 nM, 11 days
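Also: variant abundance is its share of total variant reads in each endpoint sample, from next-generation sequencing of the integrated ORF PCR-amplified out of genomic DNA.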

Variant	scaled log2 fold change [1]	scaled log2 fold change [2]
MAAAGGARLLRAASAVLGGPAGRWLHHAGSRAGSSGLLRNRGPGGSAEASRSLSVSARLRSSSEDKITVHFINRDGETLTTKGKVGDSLLDVVVENNLDIDGFGACEGTLACSTCHLIFEDHIYEKLDAITDEENDMLDLAYGLTDRSRLGCQICLTKSMDNMTVRVPETVADARQSIDVGKTS	-0.434	0.562
MAAAGGARLLRAASAVLGGPAGRWLHHAGSRAGSSGLLRNRGPGGSAEASRSLSVSARKRSSSEDKITVHFINRDGETLTTKGKVGDSLLDVVVENNLDIDGFGACEGTLACSTCHLIFEDHIYEKLDAITDEENDMLDLAYGLTDRSRLGCQICLTKSMDNMTVRVPETVADARQSIDVGKTS	-0.0687	-0.733
MAAAGGARLLRAASAVLGGPAGRWLHHAGSRAGSSGLLRNRGPGGSAEASRSLSVSARHRSSSEDKITVHFINRDGETLTTKGKVGDSLLDVVVENNLDIDGFGACEGTLACSTCHLIFEDHIYEKLDAITDEENDMLDLAYGLTDRSRLGCQICLTKSMDNMTVRVPETVADARQSIDVGKTS	-0.614	
MAAAGGARLLRAASAVLGGPAGRWLHHAGSRAGSSGLLRNRGPGGSAEASRSLSVSARSRSSSEDKITVHFINRDGETLTTKGKVGDSLLDVVVENNLDIDGFGACEGTLACSTCHLIFEDHIYEKLDAITDEENDMLDLAYGLTDRSRLGCQICLTKSMDNMTVRVPETVADARQSIDVGKTS	0.217	0.732
MAAAGGARLLRAASAVLGGPAGRWLHHAGSRAGSSGLLRNRGPGGSAEASRSLSVSARPRSSSEDKITVHFINRDGETLTTKGKVGDSLLDVVVENNLDIDGFGACEGTLACSTCHLIFEDHIYEKLDAITDEENDMLDLAYGLTDRSRLGCQICLTKSMDNMTVRVPETVADARQSIDVGKTS	-0.0792	
MAAAGGARLLRAASAVLGGPAGRWLHHAGSRAGSSGLLRNRGPGGSAEASRSLSVSARMRSSSEDKITVHFINRDGETLTTKGKVGDSLLDVVVENNLDIDGFGACEGTLACSTCHLIFEDHIYEKLDAITDEENDMLDLAYGLTDRSRLGCQICLTKSMDNMTVRVPETVADARQSIDVGKTS	-0.0959	-0.108
MAAAGGARLLRAASAVLGGPAGRWLHHAGSRAGSSGLLRNRGPGGSAEASRSLSVSARGRSSSEDKITVHFINRDGETLTTKGKVGDSLLDVVVENNLDIDGFGACEGTLACSTCHLIFEDHIYEKLDAITDEENDMLDLAYGLTDRSRLGCQICLTKSMDNMTVRVPETVADARQSIDVGKTS	-0.424	-0.916
MAAAGGARLLRAASAVLGGPAGRWLHHAGSRAGSSGLLRNRGPGGSAEASRSLSVSARVRSSSEDKITVHFINRDGETLTTKGKVGDSLLDVVVENNLDIDGFGACEGTLACSTCHLIFEDHIYEKLDAITDEENDMLDLAYGLTDRSRLGCQICLTKSMDNMTVRVPETVADARQSIDVGKTS	-0.507	0.0474
MAAAGGARLLRAASAVLGGPAGRWLHHAGSRAGSSGLLRNRGPGGSAEASRSLSVSARIRSSSEDKITVHFINRDGETLTTKGKVGDSLLDVVVENNLDIDGFGACEGTLACSTCHLIFEDHIYEKLDAITDEENDMLDLAYGLTDRSRLGCQICLTKSMDNMTVRVPETVADARQSIDVGKTS	0.202	0.473
MAAAGGARLLRAASAVLGGPAGRWLHHAGSRAGSSGLLRNRGPGGSAEASRSLSVSARQRSSSEDKITVHFINRDGETLTTKGKVGDSLLDVVVENNLDIDGFGACEGTLACSTCHLIFEDHIYEKLDAITDEENDMLDLAYGLTDRSRLGCQICLTKSMDNMTVRVPETVADARQSIDVGKTS	0.564	-0.702
MAAAGGARLLRAASAVLGGPAGRWLHHAGSRAGSSGLLRNRGPGGSAEASRSLSVSARNRSSSEDKITVHFINRDGETLTTKGKVGDSLLDVVVENNLDIDGFGACEGTLACSTCHLIFEDHIYEKLDAITDEENDMLDLAYGLTDRSRLGCQICLTKSMDNMTVRVPETVADARQSIDVGKTS	-0.132	0.117
MAAAGGARLLRAASAVLGGPAGRWLHHAGSRAGSSGLLRNRGPGGSAEASRSLSVSARTRSSSEDKITVHFINRDGETLTTKGKVGDSLLDVVVENNLDIDGFGACEGTLACSTCHLIFEDHIYEKLDAITDEENDMLDLAYGLTDRSRLGCQICLTKSMDNMTVRVPETVADARQSIDVGKTS	0.332	-0.0311
MAAAGGARLLRAASAVLGGPAGRWLHHAGSRAGSSGLLRNRGPGGSAEASRSLSVSARWRSSSEDKITVHFINRDGETLTTKGKVGDSLLDVVVENNLDIDGFGACEGTLACSTCHLIFEDHIYEKLDAITDEENDMLDLAYGLTDRSRLGCQICLTKSMDNMTVRVPETVADARQSIDVGKTS	0.216	0.283
MAAAGGARLLRAASAVLGGPAGRWLHHAGSRAGSSGLLRNRGPGGSAEASRSLSVSARRRSSSEDKITVHFINRDGETLTTKGKVGDSLLDVVVENNLDIDGFGACEGTLACSTCHLIFEDHIYEKLDAITDEENDMLDLAYGLTDRSRLGCQICLTKSMDNMTVRVPETVADARQSIDVGKTS	-0.761	-0.456
MAAAGGARLLRAASAVLGGPAGRWLHHAGSRAGSSGLLRNRGPGGSAEASRSLSVSARYRSSSEDKITVHFINRDGETLTTKGKVGDSLLDVVVENNLDIDGFGACEGTLACSTCHLIFEDHIYEKLDAITDEENDMLDLAYGLTDRSRLGCQICLTKSMDNMTVRVPETVADARQSIDVGKTS	0.0878	-0.306
MAAAGGARLLRAASAVLGGPAGRWLHHAGSRAGSSGLLRNRGPGGSAEASRSLSVSARAASSSEDKITVHFINRDGETLTTKGKVGDSLLDVVVENNLDIDGFGACEGTLACSTCHLIFEDHIYEKLDAITDEENDMLDLAYGLTDRSRLGCQICLTKSMDNMTVRVPETVADARQSIDVGKTS	0.137	
MAAAGGARLLRAASAVLGGPAGRWLHHAGSRAGSSGLLRNRGPGGSAEASRSLSVSARACSSSEDKITVHFINRDGETLTTKGKVGDSLLDVVVENNLDIDGFGACEGTLACSTCHLIFEDHIYEKLDAITDEENDMLDLAYGLTDRSRLGCQICLTKSMDNMTVRVPETVADARQSIDVGKTS	0.327	-0.517
MAAAGGARLLRAASAVLGGPAGRWLHHAGSRAGSSGLLRNRGPGGSAEASRSLSVSARAESSSEDKITVHFINRDGETLTTKGKVGDSLLDVVVENNLDIDGFGACEGTLACSTCHLIFEDHIYEKLDAITDEENDMLDLAYGLTDRSRLGCQICLTKSMDNMTVRVPETVADARQSIDVGKTS	-0.329	0.272
